# Data as given in doi:10.1101/2025.04.04.647053 (bioRxiv, 2025).
# B1: AND-1 (natural protein, H. sapiens, UniProt O75717 1-1129, looked up)
# chain: MPATRKPMRYGHTEGHTEVCFDDSGSFIVTCGSDGDVRIWEDLDDDDPKFINVGEKAYSCALKSGKLVTAVSNNTIQVHTFPEGVPDGILTRFTTNANHVVFNGDGTKIAAGSSDFLVKIVDVMDSSQQKTFRGHDAPVLSLSFDPKDIFLASASCDGSVRVWQISDQTCAISWPLLQKCNDVINAKSICRLAWQPKSGKLLAIPVEKSVKLYRRESWSHQFDLSDNFISQTLNIVTWSPCGQYLAAGSINGLIIVWNVETKDCMERVKHEKGYAICGLAWHPTCGRISYTDAEGNLGLLENVCDPSGKTSSSKVSSRVEKDYNDLFDGDDMSNAGDFLNDNAVEIPSFSKGIINDDEDDEDLMMASGRPRQRSHILEDDENSVDISMLKTGSSLLKEEEEDGQEGSIHNLPLVTSQRPFYDGPMPTPRQKPFQSGSTPLHLTHRFMVWNSIGIIRCYNDEQDNAIDVEFHDTSIHHATHLSNTLNYTIADLSHEAILLACESTDELASKLHCLHFSSWDSSKEWIIDLPQNEDIEAICLGQGWAAAATSALLLRLFTIGGVQKEVFSLAGPVVSMAGHGEQLFIVYHRGTGFDGDQCLGVQLLELGKKKKQILHGDPLPLTRKSYLAWIGFSAEGTPCYVDSEGIVRMLNRGLGNTWTPICNTREHCKGKSDHYWVVGIHENPQQLRCIPCKGSRFPPTLPRPAVAILSFKLPYCQIATEKGQMEEQFWRSVIFHNHLDYLAKNGYEYEESTKNQATKEQQELLMKMLALSCKLEREFRCVELADLMTQNAVNLAIKYASRSRKLILAQKLSELAVEKAAELTATQVEEEEEEEDFRKKLNAGYSNTATEWSQPRFRNQVEEDAEDSGEADDEEKPEIHKPGQNSFSKSTNSSDVSAKSGAVTFSSQGRVNPFKVSASSKEPAMSMNSARSTNILDNMGKSSKKSTALSRTTNNEKSPIIKPLIPKPKPKQASAASYFQKRNSQTNKTEEVKEENLKNVLSETPAICPPQNTENQRPKTGFQMWLEENRSNILSDNPDFSDEADIIKEGMIRFRVLSTEERKVWANKAKGETASEGTEAKKRKRVVDESDETENQEEKAKENLNLSKKQKPLDFSTNQKLSAFAFKQE
# Target: the molecule itself
# Test: cryo-EM structure
protein,measurement,value
B1,stoichiometry N,3
